Assays:
[1] = target: human IL-5 protein (purchased from Beijing Yiqiao Shenzhou) (human) (UniProt P05113); assay: cell-based or functional assay
[2] = target: human IL-5 protein (purchased from Beijing Yiqiao Shenzhou) (human) (UniProt P05113); assay: SPR Biacore T200, antibody captured on Protein A/G, IL-5 as analyte
[3] = target: IL-5 mutant 104L to Alanine, with His-tag (human) (UniProt P05113); assay: capture ELISA: His-tagged IL-5 from HEK293E supernatant captured with murine anti-His antibody, detected with Goat-anti-Human-Fc-Specific-HRP; mean of four wells
[4] = target: IL-5 mutant 86C to Alanine, with His-tag (human) (UniProt P05113); assay: as above
[5] = target: IL-5 mutant 96F to Alanine, with His-tag (human) (UniProt P05113); assay: as above

Chain of Nucala (Mepolizumab) (antibody) (VH): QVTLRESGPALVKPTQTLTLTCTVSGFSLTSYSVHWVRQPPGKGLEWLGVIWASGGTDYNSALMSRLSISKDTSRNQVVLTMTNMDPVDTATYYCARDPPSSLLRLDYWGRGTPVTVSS
Chain of Nucala (Mepolizumab) (antibody) (VL): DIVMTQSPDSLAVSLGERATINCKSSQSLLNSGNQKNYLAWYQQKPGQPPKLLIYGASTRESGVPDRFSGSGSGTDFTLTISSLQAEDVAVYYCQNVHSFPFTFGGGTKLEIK

## Nucala (Mepolizumab) (antibody)
[1]
  IC50 for inhibiting IL-5-induced TF-1 cell proliferation (Nucala): 0.0708 µg/mL
[2]
  Kd: 0.201 nM
[3]
  OD450: 0.109
[4]
  OD450: 0.0967
[5]
  OD450: 0.19

Source: patent US20210171621A1
